In PMC8800519 (Journal of Molecular Cell Biology, 2021):

Target: recombinant mouse α1C/β2A tubulin heterodimer (mouse, UniProt P68373;Q7TMM9)
Assay: single-molecule TIRF microscopy

Sequence of recombinant mouse α1C/β2A tubulin heterodimer (P68373 whole entry, one chain of several): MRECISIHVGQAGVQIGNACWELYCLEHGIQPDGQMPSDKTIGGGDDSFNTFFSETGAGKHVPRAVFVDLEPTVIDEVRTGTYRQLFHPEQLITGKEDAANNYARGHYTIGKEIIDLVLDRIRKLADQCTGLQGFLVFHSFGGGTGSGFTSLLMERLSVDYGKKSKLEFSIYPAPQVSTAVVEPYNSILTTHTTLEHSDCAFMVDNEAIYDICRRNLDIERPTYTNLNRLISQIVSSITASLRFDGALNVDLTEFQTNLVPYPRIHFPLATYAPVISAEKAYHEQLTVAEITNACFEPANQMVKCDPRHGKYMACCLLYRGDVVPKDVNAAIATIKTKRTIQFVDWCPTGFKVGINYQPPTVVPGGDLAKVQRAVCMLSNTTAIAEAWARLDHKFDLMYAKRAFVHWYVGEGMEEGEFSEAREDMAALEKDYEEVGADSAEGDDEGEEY

B1: EB1-GFP (full-length human EB1 with a GFP tag) (natural protein)
chain: MAVNVYSTSVTSDNLSRHDMLAWINESLQLNLTKIEQLCSGAAYCQFMDMLFPGSIALKKVKFQAKLEHEYIQNFKILQAGFKRMGVDKIIPVDKLVKGKFQDNFEFVQWFKKFFDANYDGKDYDPVAARQGQETAVAPSLVAPALNKPKKPLTSSSAAPQRPISTQRTAAAPKAGPGVVRKNPGVGNGDDEAAELMQQVNVLKLTVEDLEKERDFYFGKLRNIELICQENEGENDPVLQRIVDILYATDEGFVIPDEGGPQEEQEEY
B1: binds.
